The values that follow come from article PMC4501562, “Vpu Exploits the Cross-Talk between BST2 and the ILT7 Receptor to Suppress Anti-HIV-1 Responses by Plasmacytoid Dendritic Cells” (PLoS Pathogens, 2015).

One may read the Kd as the free concentration of one partner at which half of the binding sites on the other are occupied at equilibrium, for simple one-to-one binding. Lower therefore signals tighter binding. In general, koff refers to a measure of how fast the partners let go of each other. One may read the kon as the rate constant with which the complex forms. High values mean faster complex formation, low ones slower complex formation.

For assay [1], the target named is ILT7 on the ILT7+ NFAT-GFP reporter mouse cell line (CT550) (human) (UniProt P59901).
The target in assay [2] is T1, baculovirus-expressed soluble ILT7 (residues 24 to 435) (human, UniProt P59901 24-435).
T1 construct: immunoglobulin-like transcript 7 (ILT7, LILRA4, CD85g), human, residues 24 to 435, from a synthetic codon-optimized gene; Cloned into the transfer vector pFL and transposed into the EMBacY bacmid; also called bacILT7; LILRA4
The experiment in a line: SPR; Biacore 3000; GST-BST2 covalently immobilised on a CM5 chip by amine coupling (6550 RU); bacILT7 serially diluted and passed over at 10 ul/min; running buffer HBS-PE (10 mM HEPES pH 7.5, 150 mM NaCl, 3 mM EDTA, 0.005% Tween-20); GST-coated reference cell subtracted; 1:1 Langmuir model, local Rmax. As to conditions: both partners purified. For orientation: SPR reads the build-up and loss of mass on a sensor chip optically.

ILT7 on the ILT7+ NFAT-GFP reporter mouse cell line (CT550) (human), sequence (P59901 24-499): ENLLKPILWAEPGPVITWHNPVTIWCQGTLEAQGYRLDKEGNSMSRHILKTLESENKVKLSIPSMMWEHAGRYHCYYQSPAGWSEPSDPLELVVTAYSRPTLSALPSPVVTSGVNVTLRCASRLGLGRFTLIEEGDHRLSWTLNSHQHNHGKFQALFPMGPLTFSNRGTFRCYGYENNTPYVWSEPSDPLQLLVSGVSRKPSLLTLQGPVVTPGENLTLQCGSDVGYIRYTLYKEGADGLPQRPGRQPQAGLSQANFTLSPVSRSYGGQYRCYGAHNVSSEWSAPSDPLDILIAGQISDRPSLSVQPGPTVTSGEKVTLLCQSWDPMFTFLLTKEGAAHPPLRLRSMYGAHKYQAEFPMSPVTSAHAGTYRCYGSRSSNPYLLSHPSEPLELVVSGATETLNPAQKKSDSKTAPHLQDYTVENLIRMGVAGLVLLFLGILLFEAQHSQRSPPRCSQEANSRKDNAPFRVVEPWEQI
T1 sequence (P59901 24-435): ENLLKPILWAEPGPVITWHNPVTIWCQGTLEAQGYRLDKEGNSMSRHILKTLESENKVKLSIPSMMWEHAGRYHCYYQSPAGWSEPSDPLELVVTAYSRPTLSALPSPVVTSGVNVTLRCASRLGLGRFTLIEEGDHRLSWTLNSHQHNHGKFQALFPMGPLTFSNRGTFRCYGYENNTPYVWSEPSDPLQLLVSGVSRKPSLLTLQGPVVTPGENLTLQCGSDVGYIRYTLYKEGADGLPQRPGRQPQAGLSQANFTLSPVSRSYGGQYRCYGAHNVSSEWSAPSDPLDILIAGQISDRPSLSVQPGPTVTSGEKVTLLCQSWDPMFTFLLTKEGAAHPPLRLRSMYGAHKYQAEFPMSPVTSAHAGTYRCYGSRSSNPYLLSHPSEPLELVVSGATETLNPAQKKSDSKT

In assay [1], “WT BST2 expressed on HEK293T cells (from UniProt Q10589 1-161) (natural protein)” showed a percentage of NFAT-GFP positive ILT7+ reporter cells after co-culture with BST2-expressing HEK293T cells (no HIV) of 99%, a percentage of NFAT-GFP positive ILT7+ reporter cells after co-culture with BST2-expressing HEK293T cells producing WT HIV (Vpu present) of 74% and a percentage of NFAT-GFP positive ILT7+ reporter cells after co-culture with BST2-expressing HEK293T cells producing dU HIV (no Vpu) of 48%.

B1: recombinant GST-tagged ectodomain of BST2 (residues 47 to 159) (domain or fragment)
chain: KANSEACRDGLRAVMECRNVTHLLQQELTEAQKGFQDVEAQAATCNHTVMALMASLDAEKAQGQKKVEELEGEITTLNHKLQDASAEVERLRRENQVLSVRIADKKYYPSSQD
notes: BST2/Tetherin (CD317), human, extracellular domain, residues 47 to 159; a region common to the short and the long BST2 isoforms; Cloned into the pBADM30 expression vector as a His-tagged GST-N-terminus fusion protein; also called GST-BST2; BST2/Tetherin; not shown: GST, N-terminal, kept
In assay [2], B1 displayed a Kd of 2330 nM, a koff of 0.00308 s⁻¹ and a kon of 1250 M⁻¹ s⁻¹.
